Experimental data reported in the supplement of paper PMC5998384.

Columns and labels:
[1] = test system: HeLa Kyoto; test: thermal stability score vs G1/S (z-score of summed log2 fold changes over temperatures); higher = more thermally stable than in G1/S
[2] = test system: HeLa Kyoto; test: solubility in G1/S (NP-40 vs SDS abundance) (log2 ratio); higher = more soluble; conditions: cell cycle stage: G1/S
[3] = test system: HeLa Kyoto; test: melting temperature (median over replicates), in situ; higher = more thermally stable
[4] = test system: HeLa Kyoto; test: solubility change mitosis vs G1/S (difference of NP-40 vs SDS log2 ratios) (log2 ratio difference); higher = more soluble in mitosis
[5] = cell cycle stage: early G1 (4.5 h after nocodazole release)
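For melting temperature (median over replicates), in situ in this document: HeLa Kyoto cells synchronized by double thymidine or nocodazole block, proteins quantified by TMT10plex mass spectrometry, three independent biological replicates.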
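For solubility change mitosis vs G1/S (difference of NP-40 vs SDS log2 ratios) in this document: synchronized HeLa Kyoto cells (double thymidine block for G1/S, nocodazole release for mitosis), protein amounts in NP-40 versus SDS lysates quantified by mass spectrometry, three biological replicates.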
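For solubility in G1/S (NP-40 vs SDS abundance) in this document: HeLa Kyoto cells arrested at G1/S by double thymidine block, proteins quantified by TMT10plex mass spectrometry in mild NP-40 versus SDS extracts, three biological replicates.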
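For thermal stability score vs G1/S (z-score of summed log2 fold changes over temperatures) in this document: synchronized HeLa Kyoto cells, proteins quantified by TMT10plex mass spectrometry, three biological replicates, mitosis taken 0.5 h after nocodazole release, G1/S directly after double thymidine block.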

Chain of HSPA9 (chain, as listed by the source): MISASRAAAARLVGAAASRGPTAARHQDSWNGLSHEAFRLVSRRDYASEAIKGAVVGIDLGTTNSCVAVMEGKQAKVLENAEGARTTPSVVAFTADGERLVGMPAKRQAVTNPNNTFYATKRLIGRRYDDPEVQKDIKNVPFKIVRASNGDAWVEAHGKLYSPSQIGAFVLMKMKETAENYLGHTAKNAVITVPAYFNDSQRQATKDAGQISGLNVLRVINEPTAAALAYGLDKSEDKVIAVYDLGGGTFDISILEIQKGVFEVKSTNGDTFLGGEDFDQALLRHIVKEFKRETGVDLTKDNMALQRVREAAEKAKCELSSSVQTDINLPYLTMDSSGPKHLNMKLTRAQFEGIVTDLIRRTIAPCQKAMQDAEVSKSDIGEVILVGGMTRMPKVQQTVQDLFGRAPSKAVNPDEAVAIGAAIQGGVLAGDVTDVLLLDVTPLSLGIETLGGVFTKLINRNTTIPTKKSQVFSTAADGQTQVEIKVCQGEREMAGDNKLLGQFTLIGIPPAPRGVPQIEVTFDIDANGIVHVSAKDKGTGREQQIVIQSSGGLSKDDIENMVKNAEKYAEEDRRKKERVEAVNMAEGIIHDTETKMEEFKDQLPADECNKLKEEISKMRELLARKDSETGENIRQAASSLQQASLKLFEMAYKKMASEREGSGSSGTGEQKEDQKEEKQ
Chain of TIMM17A (chain, as listed by the source): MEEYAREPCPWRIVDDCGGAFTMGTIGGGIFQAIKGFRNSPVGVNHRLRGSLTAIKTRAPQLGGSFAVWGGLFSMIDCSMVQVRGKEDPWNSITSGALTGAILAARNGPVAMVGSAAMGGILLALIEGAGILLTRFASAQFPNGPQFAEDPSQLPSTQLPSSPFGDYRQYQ

Substance	thermal stability score [1, 5]	thermal stability score ([1]; cell cycle stage: mitosis)	solubility in G1/S (log2) [2]	melting temperature ([3]; cell cycle stage: G1/S) [°C]	melting temperature ([3]; cell cycle stage: mitosis) [°C]	solubility change mitosis (log2) [4]
MKLPARVFFTLGSRLPCGLAPRRFFSYGTKILYQNTEALQSKFFSPLQKAMLPPNSFQGKVAFITGGGTGLGKGMTTLLSSLGAQCVIASRKMDVLKATAEQISSQTGNKVHAIQCDVRDPDMVQNTVSELIKVAGHPNIVINNAAGNFISPTERLSPNAWKTITDIVLNGTAFVTLEIGKQLIKAQKGAAFLSITTIYAETGSGFVVPSASAKAGVEAMSKSLAAEWGKYGMRFNVIQPGPIKTKGAFSRLDPTGTFEKEMIGRIPCGRLGTVEELANLAAFLCSDYASWINGAVIKFDGGEEVLISGEFNDLRKVTKEQWDTIEELIRKTKGS [DECR1]	0.81	-1.85	0.0868	55.7	55.5	0.263
HSPA9	2.31	-0.387	0.447	53.1	52.8	-0.0046
MAAEWASRFWLWATLLIPAAAVYEDQVGKFDWRQQYVGKVKFASLEFSPGSKKLVVATEKNVIAALNSRTGEILWRHVDKGTAEGAVDAMLLHGQDVITVSNGGRIMRSWETNIGGLNWEITLDSGSFQALGLVGLQESVRYIAVLKKTTLALHHLSSGHLKWVEHLPESDSIHYQMVYSYGSGVVWALGVVPFSHVNIVKFNVEDGEIVQQVRVSTPWLQHLSGACGVVDEAVLVCPDPSSRSLQTLALETEWELRQIPLQSLDLEFGSGFQPRVLPTQPNPVDASRAQFFLHLSPSHYALLQYHYGTLSLLKNFPQTALVSFATTGEKTVAAVMACRNEVQKSSSSEDGSMGSFSEKSSSKDSLACFNQTYTINLYLVETGRRLLDTTITFSLEQSGTRPERLYIQVFLKKDDSVGYRALVQTEDHLLLFLQQLAGKVVLWSREESLAEVVCLEMVDLPLTGAQAELEGEFGKKADGLLGMFLKRLSSQLILLQAWTSHLWKMFYDARKPRSQIKNEINIDTLARDEFNLQKMMVMVTASGKLFGIESSSGTILWKQYLPNVKPDSSFKLMVQRTTAHFPHPPQCTLLVKDKESGMSSLYVFNPIFGKWSQVAPPVLKRPILQSLLLPVMDQDYAKVLLLIDDEYKVTAFPATRNVLRQLHELAPSIFFYLVDAEQGRLCGYRLRKDLTTELSWELTIPPEVQRIVKVKGKRSSEHVHSQGRVMGDRSVLYKSLNPNLLAVVTESTDAHHERTFIGIFLIDGVTGRIIHSSVQKKAKGPVHIVHSENWVVYQYWNTKARRNEFTVLELYEGTEQYNATAFSSLDRPQLPQVLQQSYIFPSSISAMEATITERGITSRHLLIGLPSGAILSLPKALLDPRRPEIPTEQSREENLIPYSPDVQIHAERFINYNQTVSRMRGIYTAPSGLESTCLVVAYGLDIYQTRVYPSKQFDVLKDDYDYVLISSVLFGLVFATMITKRLAQVKLLNRAWR [EMC1]	1.42	1.57	0.0605	55.1	54.8	-0.266
MFQLPVNNLGSLRKARKTVKKILSDIGLEYCKEHIEDFKQFEPNDFYLKNTTWEDVGLWDPSLTKNQDYRTKPFCCSACPFSSKFFSAYKSHFRNVHSEDFENRILLNCPYCTFNADKKTLETHIKIFHAPNASAPSSSLSTFKDKNKNDGLKPKQADSVEQAVYYCKKCTYRDPLYEIVRKHIYREHFQHVAAPYIAKAGEKSLNGAVPLGSNAREESSIHCKRCLFMPKSYEALVQHVIEDHERIGYQVTAMIGHTNVVVPRSKPLMLIAPKPQDKKSMGLPPRIGSLASGNVRSLPSQQMVNRLSIPKPNLNSTGVNMMSSVHLQQNNYGVKSVGQGYSVGQSMRLGLGGNAPVSIPQQSQSVKQLLPSGNGRSYGLGSEQRSQAPARYSLQSANASSLSSGQLKSPSLSQSQASRVLGQSSSKPAAAATGPPPGNTSSTQKWKICTICNELFPENVYSVHFEKEHKAEKVPAVANYIMKIHNFTSKCLYCNRYLPTDTLLNHMLIHGLSCPYCRSTFNDVEKMAAHMRMVHIDEEMGPKTDSTLSFDLTLQQGSHTNIHLLVTTYNLRDAPAESVAYHAQNNPPVPPKPQPKVQEKADIPVKSSPQAAVPYKKDVGKTLCPLCFSILKGPISDALAHHLRERHQVIQTVHPVEKKLTYKCIHCLGVYTSNMTASTITLHLVHCRGVGKTQNGQDKTNAPSRLNQSPSLAPVKRTYEQMEFPLLKKRKLDDDSDSPSFFEEKPEEPVVLALDPKGHEDDSYEARKSFLTKYFNKQPYPTRREIEKLAASLWLWKSDIASHFSNKRKKCVRDCEKYKPGVLLGFNMKELNKVKHEMDFDAEWLFENHDEKDSRVNASKTADKKLNLGKEDDSSSDSFENLEEESNESGSPFDPVFEVEPKISNDNPEEHVLKVIPEDASESEEKLDQKEDGSKYETIHLTEEPTKLMHNASDSEVDQDDVVEWKDGASPSESGPGSQQVSDFEDNTCEMKPGTWSDESSQSEDARSSKPAAKKKATMQGDREQLKWKNSSYGKVEGFWSKDQSQWKNASENDERLSNPQIEWQNSTIDSEDGEQFDNMTDGVAEPMHGSLAGVKLSSQQA [ADNP]	1.91	4.53	-0.566	46.7	49.2	0.303
TIMM17A	-1.93	-3.23	0.157	58.5	58.7	-0.00894
KIAA0930	0.34	0.505	-0.0317	52.6	52.3	-0.03
MAAVRGLRVSVKAEAPAGPALGLPSPEAESGVDRGEPEPMEVEEGELEIVPVRRSLKELIPDTSRRYENKAGSFITGIDVTSKEAIEKKEQRAKRFHFRSEVNLAQRNVALDRDMMKKAIPKVRLETIYICGVDEMSTQDVFSYFKEYPPAHIEWLDDTSCNVVWLDEMTATRALINMSSLPAQDKIRSRDASEDKSAEKRKKDKQEDSSDDDEAEEGEVEDENSSDVELDTLSQVEEESLLRNDLRPANKLAKGNRLFMRFATKDDKKELGAARRSQYYMKYGNPNYGGMKGILSNSWKRRYHSRRIQRDVIKKRALIGDDVGLTSYKHRHSGLVNVPEEPIEEEEEEEEEEEEEEEEDQDMDADDRVVVEYHEELPALKQPRERSASRRSSASSSDSDEMDYDLELKMISTPSPKKSMKMTMYADEVESQLKNIRNSMRADSVSSSNIKNRIGNKLPPEKFADVRHLLDEKRQHSRPRPPVSSTKSDIRQRLGKRPHSPEKAFSSNPVVRREPSSDVHSRLGVPRQDSKGLYADTREKKSGNLWTRLGSAPKTKEKNTKKVDHRAPGAEEDDSELQRAWGALIKEKEQSRQKKSRLDNLPSLQIEVSRESSSGSEAES [NCBP3]	1.38	2.56	-0.537	45.6	49.4	0.394
MAGIAAKLAKDREAAEGLGSHDRAIKYLNQDYEALRNECLEAGTLFQDPSFPAIPSALGFKELGPYSSKTRGIEWKRPTEICADPQFIIGGATRTDICQGALGDCWLLAAIASLTLNEEILARVVPLNQSFQENYAGIFHFQFWQYGEWVEVVVDDRLPTKDGELLFVHSAEGSEFWSALLEKAYAKINGCYEALSGGATTEGFEDFTGGIAEWYELKKPPPNLFKIIQKALQKGSLLGCSIDITSAADSEAITFQKLVKGHAYSVTGAEEVESNGSLQKLIRIRNPWGEVEWTGRWNDNCPSWNTIDPEERERLTRRHEDGEFWMSFSDFLRHYSRLEICNLTPDTLTSDTYKKWKLTKMDGNWRRGSTAGGCRNYPNTFWMNPQYLIKLEEEDEDEEDGESGCTFLVGLIQKHRRRQRKMGEDMHTIGFGIYEVPEELSGQTNIHLSKNFFLTNRARERSDTFINLREVLNRFKLPPGEYILVPSTFEPNKDGDFCIRVFSEKKADYQAVDDEIEANLEEFDISEDDIDDGFRRLFAQLAGEDAEISAFELQTILRRVLAKRQDIKSDGFSIETCKIMVDMLDSDGSGKLGLKEFYILWTKIQKYQKIYREIDVDRSGTMNSYEMRKALEEAGFKMPCQLHQVIVARFADDQLIIDFDNFVRCLVRLETLFKIFKQLDPENTGTIELDLISWLCFSVL [CAPN2]	-0.784	-1.57	-0.0212	55.4	54.9	-0.183
MEANWTAFLFQAHEASHHQQQAAQNSLLPLLSSAVEPPDQKPLLPIPITQKPQGAPETLKDAIGIKKEKPKTSFVCTYCSKAFRDSYHLRRHESCHTGIKLVSRPKKTPTTVVPLISTIAGDSSRTSLVSTIAGILSTVTTSSSGTNPSSSASTTAMPVTQSVKKPSKPVKKNHACEMCGKAFRDVYHLNRHKLSHSDEKPFECPICNQRFKRKDRMTYHVRSHEGGITKPYTCSVCGKGFSRPDHLSCHVKHVHSTERPFKCQTCTAAFATKDRLRTHMVRHEGKVSCNICGKLLSAAYITSHLKTHGQSQSINCNTCKQGISKTCMSEETSNQKQQQQQQQQQQQQQQQQQQHVTSWPGKQVETLRLWEEAVKARKKEAANLCQTSTAATTPVTLTTPFSITSSVSSGTMSNPVTVAAAMSMRSPVNVSSAVNITSPMNIGHPVTITSPLSMTSPLTLTTPVNLPTPVTAPVNIAHPVTITSPMNLPTPMTLAAPLNIAMRPVESMPFLPQALPTSPPW [VEZF1]	0.665	0.5	0.142	55.4	–	0.0342
